In one data set the target is T1, Suc-Leu-Ala-Gly-Dox.
T1 chain: XAX

The target in another data set is T2, Suc-βAla-Leu-Ala-Leu-Dox.
T2 chain: XLAX

B1: human CD10 (protein)
chain: GKSESQMDITDINTPKPKKKQRWTPLEISLSVLVLLLTIIAVTMIALYATYDDGICKSSDCIKSAARLIQNMDATTEPCTDFFKYACGGWLKRNVIPETSSRYGNFDILRDELEVVLKDVLQEPKTEDIVAVQKAKALYRSCINESAIDSRGGEPLLKLLPDIYGWPVATENWEQKYGASWTAEKAIAQLNSKYGKKVLINLFVGTDDKNSVNHVIHIDQPRLGLPSRDYYECTGIYKEACTAYVDFMISVARLIRQEERLPIDENQLALEMNKVMELEKEIANATAKPEDRNDPMLLYNKMTLAQIQNNFSLEINGKPFSWLNFTNEIMSTVNISITNEEDVVVYAPEYLTKLKPILTKYSARDLQNLMSWRFIMDLVSSLSRTYKESRNAFRKALYGTTSETATWRRCANYVNGNMENAVGRLYVEAAFAGESKHVVEDLIAQIREVFIQTLDDLTWMDAETKKRAEEKALAIKERIGYPDDIVSNDNKLNNEYLELNYKEDEYFENIIQNLKFSQSKQLKKLREKVDKDEWISGAAVVNAFYSSGRNQIVFPAGILQPPFFSAQQSNSLNYGGIGMVIGHEITHGFDDNGRNFNKDGDLVDWWTQQSASNFKEQSQCMVYQYGNFSWDLAGGQHLNGINTLGENIADNGGLGQAYRAYQNYIKKNGEEKLLPGLDLNHKQLFFLNFAQVWCGTYRPEYAVNSIKTDVHSPGNFRIIGTLQNSAEFSEAFHCRKNSYMNPEKKCRVW
As for B1, in the data set with Suc-Leu-Ala-Gly-Dox, the Percent Conversion/Hour to Gly-Dox, CD10 transfected CHO Clone 8 (Percent Conversion/Hour) is 0.61 and the conversion rate to Gly-Dox, CD10 transfected CHO Clone 8 turned out to be 0.06 mM/h. In the data set with Suc-βAla-Leu-Ala-Leu-Dox, this protein showed a Percent Conversion/Hour to Leu-Dox, CD10 transfected CHO Clone 8 (Percent Conversion/Hour) of 3 and a conversion rate to Leu-Dox, CD10 transfected CHO Clone 8 of 0.3 mM/h.
